The values below come from article doi:10.1101/2021.06.15.447100.

Experiment [1] deals with BG505 SOSIP.664 (HIV-1 (clade A, BG505)). The experiment is described as follows: SEC. For orientation: In gel filtration, larger molecules generally elute earlier.
For experiment [2], the target named is C.1086 NFL gp140 (Native Flexibly Linked with I559P) (HIV-1 (clade C, C.1086)). Description: SEC.
Experiment [3] deals with C.1086 UFO gp140 (Uncleaved preFusion Optimized, no disulfide linkage between A501 and T605) (HIV-1 (clade C, C.1086)). The experiment is described as follows: negative stain electron microscopy.
Experiment [4] shares this target. The experiment is described as follows: SEC.
Experiment [5] deals with C.1086 SOSIP gp140 (HIV-1 (clade C, C.1086)). Description: SEC.

By stoichiometry N is commonly meant a count of units in the complex or per binding partner. In experiment [1], BG505 SOSIP.664 (natural protein) gave a stoichiometry N of 3.

In the case of “C.1086 NFL gp140 (Native Flexibly Linked with I559P) (natural protein)”, in experiment [2], the stoichiometry N is 3.

For “C.1086 UFO gp140 (Uncleaved preFusion Optimized, no disulfide linkage between A501 and T605) (natural protein)”, the stoichiometry N in experiment [3] and in experiment [4] was 3 each time.

For the substance C.1086 SOSIP gp140 (natural protein), in experiment [5], the stoichiometry N is 3.
